Test results reported in the supplement of paper PMC12042874.
± gives the uncertainty stated by the source.

assay: amyloid nucleation score (Sup35N fusion, yeast selection) (log enrichment); library NNK2; higher = more nucleation; inactive = no reads after selection
Method in brief: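 Sup35N was fused to peptides of 20 random codons and expressed in psi-negative yeast, which were induced with 100 μM copper sulfate for 24 hours and then grown on medium lacking adenine and uracil for 7 days at 30°C. Plasmid inserts from input and output were sequenced on Illumina. The nucleation score is the DiMSum log enrichment of output over input reads, centred on the mode score of non-aggregating sequences. Sequences with under 100 input reads were left out, and random libraries had three technical output replicates.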

Row | Substance | amyloid nucleation score
1 | SMGFSSVPHSYTCTVEQG | 6.06 ± 0.07
2 | PLHHSLRTYVALGLR | 0.306 ± 0.65
3 | VHLVSLSLNKTLYDFLTGMG | -0.178 ± 0.35
4 | LFGYGQEDGQWCGDEFETVK | 0.769 ± 0.26
5 | PCLRKNRYRLWLYTMVIQTQ | 0.806 ± 0.32
6 | LLTMVHTSSIRKESGF | -0.118 ± 0.5
7 | VKITGPRWLATIICYMFR | 6.47 ± 0.075
8 | GFPRMTIHVKFHGQFSCFII | 0.615 ± 0.5
9 | SNVSKYTKRGDM | -0.184 ± 0.33
10 | GYIYVNSGYRFTKLCMVFC | 0.058 ± 0.79
11 | RFFSMVTR | 0.025 ± 0.33
12 | NRETGANCARMPKVNVWEQQ | 0.865 ± 0.25
13 | LAWSVLNMFRKVAFN | 0.089 ± 1.1
14 | VCFVWDKARAMCSFYFV | -0.596 ± 0.79
15 | IRANGDKSVYM | 2.21 ± 0.076
16 | MISYYLMSIYS | 4.58 ± 0.065
17 | RCRPFFPRNVFSRVENIYHA | -0.602 ± 1.1
18 | VGCIYSFWEWVFKQPVRSRK | inactive
19 | GVKST | 0.422 ± 0.74
20 | CYGRIM | 1.74 ± 0.099
21 | INYSFWRSHSSP | 4.42 ± 0.099
22 | FRGVLWLSYLQDYRFDLYCM | -0.773 ± 0.61

Row | Substance | amyloid nucleation score
23 | VFIGQQDHINP | 0.363 ± 0.65
24 | VCGWFHGHWGTWWDVQQRKR | 2.3 ± 0.16
25 | GEFLYNT | -0.237 ± 1
26 | LHDLDWYSGILIQFDSDMRW | 1.37 ± 0.15
27 | PATVVILS | 1.23 ± 0.45
28 | CSFSADCVSRSGGRSFSP | -0.834 ± 0.63
29 | MFCSEMLVYGLMMVLSF | -0.05 ± 0.3
30 | IDPKEMTGDRQWVSFTVRRR | 0.574 ± 0.24
31 | YSSMGDNSRVRSFFVAVAGG | inactive
32 | WDLLLCNTKFFEIRIKADTL | 3.94 ± 0.094
33 | GKDGRVFGSEAYWMEGKRKW | 0.235 ± 0.8
34 | KRFIESNIVIQSDLTSLRRK | -0.184 ± 1.1
35 | FHVCWERSMLIRV | -0.559 ± 0.76
36 | AFCWTLWQYLGFS | 1.35 ± 0.16
37 | GWCSYTP | 0.832 ± 0.67
38 | KMEMRGCRMVTNMYC | -0.06 ± 0.33
39 | FHIFQFVSLGFWSSEG | inactive
40 | VFHRVEYSWGFRFYCCCLMC | 3.91 ± 0.059
41 | CSYVDRTLGSNLWVVRSNSQ | 0.737 ± 0.51
42 | YRLYHILECSGVMMS | -1.01 ± 0.44
43 | MMLRLSCSSPQSLVRSSS | -0.181 ± 0.63
44 | INWLKYLAFLILLDMFNSFG | 0.263 ± 0.64

Row | Substance | amyloid nucleation score
45 | SSWAGVMYIVHNTKVHSYTI | 3.19 ± 0.064
46 | CFAYSSWDTPDMMAWVCRWD | 0.154 ± 0.65
47 | SLWRNHMMQ | 0.746 ± 0.4
48 | LSLFISGDYWVIQGNIY | 3.65 ± 0.059
49 | KPNFIRLYRIKFNKLGLGIT | -0.855 ± 1
50 | SLVSKIRLRGAWINSGVKTG | 0.923 ± 0.17
51 | MFNFWWSFYALFKLSWRPGF | -0.996 ± 0.49
52 | DYMNGDKSKKGDYWIMSVNS | 0.154 ± 0.65
53 | VLVFEVPFMFNGAFTMGCIR | 7.075 ± 0.067
54 | KCVRKCYDIYGLLSCCGRLA | 8.844 ± 0.039
55 | RFHGTGSQHS | -0.496 ± 0.39
56 | TTPLTRRFRRFHVW | 1.02 ± 0.26
57 | KLWTISVDHPGII | -1.45 ± 1
58 | LNYYWRFMPGGIGITGSSLS | 1.72 ± 0.12
59 | FWFMVCLIAG | -0.223 ± 0.48
60 | ECRFKDTATRFRQSLRFYNM | inactive
61 | FIFVLI | 3.08 ± 0.11
62 | RVYNITILYRCLKRRLS | 0.878 ± 0.57
63 | DEWPWAVPSGVSRGCAGSVY | 0.231 ± 0.32
64 | YSNRLYFVLEAVVYL | 1.41 ± 0.32
65 | RSDMCSAMIFWSELVKWQDG | 3.84 ± 0.091
66 | PRVRSAVQSLRGVKYCLGRR | -0.531 ± 0.63

Row | Substance | amyloid nucleation score
67 | SFRANDNSFGCQWRRFLISG | 0.032 ± 0.42
68 | FTVLCYSSDIMEDFRFTHHN | 4.12 ± 0.047
69 | TYNGMFTQLAFG | 3.48 ± 0.07
70 | VCPPSDVS | inactive
71 | KFSTLCRISYITYLFFG | 6.336 ± 0.049
72 | IPEVQCIKFMSYSGCHIQAL | inactive
73 | SIQRTVS | 0.473 ± 0.2
74 | AFNERAYYVGGLTADME | 0.753 ± 0.43
75 | RALCTKVRTLLCFYLGVLWS | 0.903 ± 0.74
76 | MLHSRLAREMHTLVILFFNK | 0.05 ± 0.49
77 | CMRCILASCK | -0.348 ± 0.34
78 | NTELSVMPGRLSNFIKLNVT | -0.248 ± 0.65
79 | MYPIWNQCSSWNEVVLNGCR | 0.159 ± 0.4
80 | FKSLVSMVENDWMS | -0.855 ± 0.44
81 | CEYYVHLRY | -0.702 ± 0.49
82 | SENIRDFVLKWCYLDTHDRL | -0.261 ± 1.1
83 | LFDLDSESRMTPQGGLRNAT | -0.665 ± 0.54
84 | SFAAMLVSSKVVGWVTGRAT | 1.68 ± 0.21
85 | NLRWPIFNSWSSG | -0.553 ± 0.27
86 | ILKSKVSGPIYVSE | 0.848 ± 0.23
87 | DRFVWVADTWWSRRNNAAFG | 4.16 ± 0.054
88 | ALCKFRDFFVMYNTGWHTVQ | -0.935 ± 1.1
